Two molecules from patent US20050201975A1 (published 2005) can be followed below.

One assay deals with T1, GAL4BD alone (UniProt P04386 1-147).
T1 construct: domain: GAL4BD; Three empty GAL4BD expression constructs were used as controls; also called pBD-GAL4cam; pBRIDGE
Kind of assay: yeast two-hybrid (HIS3, ADE2, LacZ reporters) in AH109. The text has this: AH109pLOR67 and AH109 transformed with GAL4BD expression constructs pBD-GAL4cam (Stratagene), pBRIDGE (Clontech) and pLOR32 were used to assess whether the GAL4AD fusion proteins encoded by plasmids 8-2 and 8-7 interacted in a repeatable and specific manner with the Notch1(₁₇₆₂₋₁₈₂₉) domain of the GAL4BDN1(₁₇₆₂₋₁₈₂₉) fusion protein.
These yeast stains along with AH109pLOR67 were then transformed with either 8-2 (CBF 1 fragment) or 8-7 and plated on —WL, —WLH, —WLHA, —WLHAXαGAL plates. An alternative to XaGAL was also employed to assess LacZ expression. Yeast colonies grown on —WLHA plates, were transferred to filter paper by placing the appropriately sized piece of 3 mm Whatman paper over the screen plate and pressing down firmly over the whole surface of the plate. The orientation of the paper was then marked and the paper lifted with a jerking action, lifting the colonies from the agar. The yeast colonies were permeabilised by placing the filter papers in liquid nitrogen, and then allowing them to thaw. This cycle was repeated three times in total. 1.8 ml Z buffer containing X-gal was added to each filter paper, the papers were then monitored for the next 6 hours for the production of blue colour.

Another assay has as its target T2, GAL4AD protein (UniProt P04386 768-881).
T2 construct: domain: GAL4AD
T2 sequence (looked up): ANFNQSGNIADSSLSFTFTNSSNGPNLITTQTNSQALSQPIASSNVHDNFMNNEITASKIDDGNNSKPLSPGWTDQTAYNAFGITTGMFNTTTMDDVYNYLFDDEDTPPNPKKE
Kind of assay: yeast two-hybrid bait specificity check in AH109pLOR67.

B1: GAL4AD fusion protein encoded by plasmid 8-7 (splice variant of the human homologue of mouse C2PA) (other, not shown: small tags and cut ends)
chain: GRATQGAHARLTGPVRAPAAGGELGFHGAAAEAGPAAMNRFNGLCKVCSERRYRQITIPRGKDGFGFTICCDSPVRVQAVDSGGPAERAGLQQLDTVLQLNERPVEHWKCVELAHEIRSCPSEIILLVWRMVPQVKPGPDGGVLRRASCKSTHDLQSPPNKREKNCTHGVQARPEQRHSCHLVCDSSDGLLLGGWERYTEVAKRGGQHTLPALSRATAPTDPNYIILAPLNPGSQLLRPVYQEDTIPEESGSPSKGKSYTGLGKKSRLMKTVQTMKGHGNYQNCPVVRPHATHSSYGTYVTLAPKVLVFPVFVQPLDLCNPARTLLLSEELLLYEGRNKAAEVTLFAYSDLLLFTKEDEPGRCDVLRNPLYLQSVKLQEGSSEDLKFCVLYLAEKAECLFTLEAHSQEQKKRVCWCLSENIAKQQQLAASPPDSKKLHPFGSLQQEMGPVNSTNATQDRSFTSPGQTLIG
notes: Prey from a human spleen cDNA library (Clontech); also called colony 8-7
Take B1: the binding result with GAL4BD alone is reported as “no binding”.

B2: GAL4BD-N1 fragment (1762-1829) fusion protein (other)
chain: MKLLSSIEQACDICRLKKLKCSKEKPKCAKCLKNNWECRYSPKTKRSPLTRAHLTEVESRLERLEQLFLLIFPREDLDMILKMDSLQDIKALLTGLFVQDNVNKDAVTDRLASVETDMPLTLRQHRISATSSSEESSNKGQRQLTVSPEFRRQHGQLWFPEGFKVSEASKKKRREPLGEDSVGLKPLKNASDGALMDDNQNEWGDEDLETKKFRFEDPSTCSQANSGRISYDL
notes: Expressed in yeast strain AH109 from pLOR67 (yeast two-hybrid bait); Notch1 numbering per AAG33848; also called bait protein
On to B2, for which the binding result in the assay with GAL4AD protein is “no binding”.
